Reference: the supplement of paper PMC12042874
± gives the uncertainty stated by the source.

Test: amyloid nucleation score (Sup35N fusion, yeast selection) (log enrichment); library NNK3; higher = more nucleation; inactive = no reads after selection
Outline: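 Random libraries were run with three technical output replicates. In each, psi-negative yeast expressing Sup35N fused to peptides of 20 random codons were induced 24 hours with 100 μM copper sulfate and grown 7 days at 30°C on medium lacking adenine and uracil, and input and output plasmid inserts were Illumina-sequenced. The nucleation score is the DiMSum log enrichment of output over input reads, centred on the mode score of non-aggregating sequences, and sequences under 100 input reads were excluded.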

Substance | amyloid nucleation score
GYLLRFMCCNCIPSTEIMIE | 2.73 ± 0.056
SVYECNLIRDFIDRQGPNLA | 2.25 ± 0.058
IIRAFDTYVCCKFGNCSVHM | 2.59 ± 0.052
EYMCACSLEILVL | inactive
TQDRYAISIRLVSTQLKLMS | inactive
CKMRYEDESWFKWVVDLSFN | inactive
ADMCPVDRRVLDLVSKRAMS | inactive
YSKRSLDYI | inactive
FHNFVRHIYAGGNRP | inactive
VVVLYFVSHWTNRMSYSTRL | inactive
GVIILSLTAKCQAMDSVRTL | 0.841 ± 0.14
WTESWYKYMNKDVSSHCKQS | inactive
RSHGVLNLILCSPFLSDTGQ | 2.78 ± 0.074
TNGKEWWNCVYGERTVNAFA | inactive
IHLTCLWVYQDLLV | inactive
CFCRMNIGGHCGVRRKLKV | inactive
LFIECIRSGDDGCILWETWH | inactive
MLDRCD | inactive
YFENLVEVRQIATFKTV | inactive
VLVVLDVRRGTDLCTF | inactive
NDLSGKTCNGRRVEDRAPMA | -0.114 ± 0.44
ICRRPYFSHLRSHRGFQNTD | inactive

Substance | amyloid nucleation score
YNRADSIRFQ | inactive
HRLVRLSVRMSRRTYS | inactive
ASPTQVNYFTLVKCMVLRTT | inactive
NFTGSCVPVIRQMASCFSSF | inactive
CIFMRIYGVC | inactive
LNIIP | inactive
THEHMRHC | inactive
ECMRNTPLTQSTATTMTTGF | inactive
SALFMLPYALTRMVYANLLQ | -0.004 ± 0.75
MSTLVTMYHYGVGGCVWFYL | inactive
DLGMLERC | inactive
KCMQVVSSRSWVVHWGWKGG | inactive
QYLSRCLTWSYVTVKSLRSN | inactive
SFSYDTRVDVSAILQSQNSL | inactive
CLVGPVHPMFVL | inactive
SFSELVSAASKTQTVCRRKC | inactive
LKTTDLLPQVTCPHLCILFL | 0.808 ± 0.23
VNNNYEVCNDRDSCPLINFC | inactive
RKAGR | inactive
CTKWGGVSVISCQLAVSAKI | inactive
SGFVRWRSISFLPNHERLST | inactive
IYYIDL | inactive

Substance | amyloid nucleation score
WGEPIVLDLSSFFDLVDRHG | inactive
KWYRWCMYADDIESHLFGAL | inactive
YGFAVRLCCPSLNVFLTELL | 0.612 ± 0.15
SYRGSRRRSFTSYLCEFEGM | inactive
FTSVMKNNV | inactive
ISSFGARNTPWRTLSPAPEG | 0.184 ± 0.32
SFHLQVLPRSGVLACISTGF | inactive
HLFINL | inactive
DVNLRTSHYAF | inactive
AHLLETMDTREVFKIR | inactive
LLGTEIWGCRRISHSGVMRW | -0.009 ± 0.43
ECTSF | inactive
VCSLVLWSLSSWWTRYGTLR | inactive
HLVRCNDRSNLRESGPS | inactive
SWGAWIGLWFRTGVLLDESA | inactive
RLKRYLHSMTHRRMRERYCY | inactive
YDWMFLYPTSIS | 0.319 ± 0.18
LINKFRWPTPNECLVPVFQD | inactive
VQPSFTMYMEFSCACVAMQL | -0.423 ± 0.49
LSRYSRSTIILEHWCDTDWY | 0.812 ± 0.24
TSGWEFRRFPNFQLLILSCF | inactive
